Target: HLA-A*02:01
Test: IEDB peptide-MHC binding, cellular MHC/competitive/fluorescence; ≥ and ≤ were set here for values at or beyond the usual limits of such assays
Settings: source organism: Vaccinia virus WR

Sequence: ELNLSKFMM
- IC50: 7 µM

Sequence: TLQKVLHVT
- IC50: 5.79 µM

Sequence: EVASTHDWST
- IC50: ≥ 70 µM

Sequence: TVPTMNNAKL
- IC50: 41.7 µM

Sequence: TMPTYKHLI
- IC50: 27.3 µM

Sequence: HASPTLFNA
- IC50: 8.95 µM

Sequence: LAIDFGNGA
- IC50: 46.6 µM

Sequence: DANVVSSST
- IC50: 7.63 µM

Sequence: DVTAKSSFV
- IC50: 8.56 µM

Sequence: HLATPINSRI
- IC50: 7.9 µM

Sequence: LITSAFDLL
- IC50: 30.3 µM

Sequence: TVELMNLKEL
- IC50: 50.6 µM

Sequence: KILTREMGFL
- IC50: 5.47 µM

Sequence: TIENALVASL
- IC50: 14.4 µM

Sequence: KITFALKKL
- IC50: 17.8 µM

Sequence: PTNKLQAAV
- IC50: 6.43 µM

Sequence: NAKCIEYVTL
- IC50: 38 µM

Sequence: EQTSVFSAT
- IC50: 16.9 µM

Sequence: SQHQHLAIM
- IC50: 13.5 µM

Sequence: TIDGVSKKNI
- IC50: ≥ 70 µM

Sequence: KLSKLTDKKT
- IC50: ≥ 70 µM

Sequence: ILRSIEGEL
- IC50: 8.99 µM

Sequence: TVRSIITDA
- IC50: 10.2 µM

Sequence: NMNYSDDYM
- IC50: 11.2 µM

Sequence: LVKLSSYHVV
- IC50: 14.4 µM

Sequence: VTKTDGIPI
- IC50: 8.57 µM

Sequence: ELDTLAAEI
- IC50: 9.53 µM

Sequence: IINRDIIVI
- IC50: 10.8 µM

Sequence: EQEIESLEA
- IC50: 26.3 µM

Sequence: SINSATESDA
- IC50: 32.7 µM

Sequence: VTSSGAIYKL
- IC50: 16.1 µM

Sequence: PAVVYSTCT
- IC50: 5.5 µM

Sequence: TAVNEEWLT
- IC50: 27 µM

Sequence: EQEIESLEAT
- IC50: 42.7 µM

Sequence: LTNVVNISTI
- IC50: ≥ 70 µM

Sequence: PLSKVHGLDV
- IC50: 37.9 µM

Sequence: LTAVEHIPT
- IC50: ≥ 70 µM

Sequence: PTMNNAKLT
- IC50: 19.8 µM

Sequence: VATDPDADA
- IC50: ≥ 70 µM

Sequence: PINAPIKTFM
- IC50: 7.62 µM

Sequence: AVCNLASVA
- IC50: 17.8 µM

Sequence: PVSTNGKIV
- IC50: ≥ 70 µM

Sequence: NIIMKTPGNT
- IC50: 8.14 µM

Sequence: ELIAFSSGT
- IC50: 5.34 µM

Sequence: EINATDIII
- IC50: 17.1 µM

Sequence: KQRTPGIITI
- IC50: 53.2 µM

Sequence: EIPTRTLDT
- IC50: 5.98 µM

Sequence: LTSGEYKQCL
- IC50: 20.2 µM

Sequence: DVGYEVIGA
- IC50: 32.3 µM

Sequence: ALNISSTKT
- IC50: 21.1 µM

Sequence: VISPMGKLT
- IC50: 8.49 µM

Sequence: MVSIDEVAST
- IC50: 36.8 µM

Sequence: HLLISFDST
- IC50: 28.1 µM

Sequence: RVETSPRPTA
- IC50: 36.5 µM

Sequence: WIKTISKRM
- IC50: 23.6 µM

Sequence: DIGTVKDGRL
- IC50: ≥ 70 µM

Sequence: ILANRDSTL
- IC50: 11 µM

Sequence: TISMLIEVIL
- IC50: ≥ 70 µM

Sequence: DLVVLGKVT
- IC50: 53.3 µM

Sequence: ELPYDENGI
- IC50: 8.48 µM

Sequence: GIVLSNTST
- IC50: 20.2 µM

Sequence: EVSINVDST
- IC50: ≥ 70 µM

Sequence: NQHNIIVEHL
- IC50: ≥ 70 µM

Sequence: PTINKSIYII
- IC50: 6.11 µM

Sequence: AQSKSSLLHA
- IC50: 32.9 µM

Sequence: MTPENDEEQT
- IC50: ≥ 70 µM

Sequence: IQKSSSIDV
- IC50: 15.9 µM

Sequence: HLSCKSGFT
- IC50: 6.23 µM

Sequence: VTFNPVSDI
- IC50: 46.3 µM

Sequence: FTNKRTRGPL
- IC50: 16.2 µM

Sequence: TTDNKITSI
- IC50: 11.5 µM

Sequence: LVKWPLLNI
- IC50: 9.21 µM

Sequence: KQTFGSLPA
- IC50: 18.9 µM

Sequence: GVIFLISVIV
- IC50: 5.83 µM

Sequence: GVIFLISVI
- IC50: 12.1 µM

Sequence: YVSTGESSI
- IC50: 11.4 µM

Sequence: PVSTNGKIVM
- IC50: ≥ 70 µM

Sequence: NTDSEMDQRL
- IC50: ≥ 70 µM

Sequence: VIYPNFSKAM
- IC50: 17.8 µM

Sequence: RQSSCKMAL
- IC50: 42.7 µM

Sequence: PIIFGESSI
- IC50: 34.7 µM

Sequence: YITSGKNNM
- IC50: 51.6 µM

Sequence: NQCMSANEAA
- IC50: 67.6 µM

Sequence: SVFYRGAENI
- IC50: 20.8 µM

Sequence: PVHDILSGL
- IC50: ≥ 70 µM

Sequence: EVSYFTNKRT
- IC50: 66.1 µM

Sequence: RLSLNRTIVT
- IC50: 8.65 µM

Sequence: TLTGSPSST
- IC50: 28.6 µM

Sequence: SATVYGDKI
- IC50: 12.9 µM

Sequence: DIRTLLPILL
- IC50: 50.6 µM

Sequence: LVVSTKGDV
- IC50: 25.8 µM

Sequence: VVSSSTIAT
- IC50: 11 µM

Sequence: NIVWEKKSL
- IC50: 10.9 µM

Sequence: STNFLANAST
- IC50: ≥ 70 µM

Sequence: MQHPREENSI
- IC50: 27.4 µM

Sequence: ATYHIIIVA
- IC50: 6.42 µM

Sequence: STNGKIVMT
- IC50: ≥ 70 µM

Sequence: KALSDACKKI
- IC50: 14.3 µM

Sequence: DILANRDST
- IC50: ≥ 70 µM

Sequence: AIDFGNGADL
- IC50: 46.8 µM

Sequence: VAPMPTASTA
- IC50: 25 µM

Sequence: SLVSYIKTT
- IC50: 5.37 µM

Sequence: IIRYPVKRI
- IC50: 10.1 µM

Sequence: VALTIMGVI
- IC50: 8.94 µM

Sequence: ITTMDGDKL
- IC50: 15 µM

Sequence: QLPMEDNSDI
- IC50: 38.5 µM

Sequence: LVFIKPPLIT
- IC50: 38.9 µM

Sequence: SIDRLSLNRT
- IC50: 5.1 µM

Sequence: TVTNLISETL
- IC50: 16.6 µM

Sequence: SQSTDIVCET
- IC50: 26 µM

Sequence: IIRRSGCRI
- IC50: ≥ 70 µM

Sequence: KVDVELFIKA
- IC50: 8 µM

Sequence: NAECQPLQL
- IC50: 14.3 µM

Sequence: DIDEILGIA
- IC50: ≥ 70 µM

Sequence: PITIENALV
- IC50: ≥ 70 µM

Sequence: VTKVNNYDDT
- IC50: ≥ 70 µM

Sequence: SMRLLHCVT
- IC50: ≥ 70 µM

Sequence: ILFLLFVCI
- IC50: 5.69 µM

Sequence: EIRDQYITA
- IC50: ≥ 70 µM

Sequence: MVISLLSMIT
- IC50: 9.75 µM

Sequence: DAAVAVAAA
- IC50: 5.2 µM

Sequence: ELVFIKPPL
- IC50: 28 µM

Sequence: NIGIVLSNT
- IC50: 14.6 µM

Sequence: ELVNLIQAKT
- IC50: ≥ 70 µM

Sequence: VTKTDGIPIT
- IC50: 27.5 µM

Sequence: VLTTPGLNHA
- IC50: ≥ 70 µM

Sequence: DASLMDMIT
- IC50: 10.5 µM

Sequence: DTSCDFESVT
- IC50: ≥ 70 µM

Sequence: IIDFLEGALI
- IC50: ≥ 70 µM

Sequence: NIKNDVVIL
- IC50: ≥ 70 µM

Sequence: CIKSHSVSLV
- IC50: ≥ 70 µM
